Results as given in PMC4263667, “Nanobody Mediated Inhibition of Attachment of F18 Fimbriae Expressing Escherichia coli” (PLoS ONE, 2014).

T1: FedF_(15–165), N-terminal lectin domain of the F18 fimbrial tip adhesin FedF (Escherichia coli (F18-fimbriated …, NT647 on surface exposed amine groups (in the MST only)))
T1 construct: also called FedF lectin domain
T1 chain: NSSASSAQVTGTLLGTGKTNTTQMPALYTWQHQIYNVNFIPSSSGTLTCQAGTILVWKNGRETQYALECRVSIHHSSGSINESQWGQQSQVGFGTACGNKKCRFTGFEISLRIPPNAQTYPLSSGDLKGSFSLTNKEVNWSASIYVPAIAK

B1: NbFedF6 (VHH)
VHH: QVQLQESGGGSVQAGGSLRLSCAASGYTSGRDSMGWFRQAPGKEREGVACIDTSGIVNYADSVKGRFTISQDSAKKTLYLEMNSLKPEDTALYSCATGPFVYGRGCLGQAFYSYWGQGTQVTVSS
notes: source: E. coli WK6, periplasmic extract, purified (Ni-NTA); not shown: His6, C-terminal, kept
B2: NbFedF7 (VHH)
VHH: QVQLQESGGGSVQAGGSLRLSCTASGYTYRKYCMGWFRQAPGKEREGVACINSGGGTSYYADSVKGRFTISQDNAKDTVFLRMNSLKPEDTAIYYCALSSNSVCPPGHVAWYNDWGQGTQVTVSS
notes: as for B1
B3: NbFedF9 (VHH)
VHH: QVQLQESGGGSVQAGGSLRLSCAASGYTYSSNCMAWFRQVPGKEREGVASINTRGGITYYADSVKGRFTISRDNAKNTVSLQMNSLKPEDTATYYCAAVREATYSDNRCSVRSYTYDYWGQGTQVTVSS
notes: as for B1
B4: NbFedF12 (VHH)
VHH: QVQLQESGGGSVQAGGSLRLSCAASGNTKSYWMGWFRQAPGKEREGVAVIAGGGAFTYYAESVKGRFTISQDNTKDTVYLAMNSLKPEDTALYYCALRTLNNGGIFLLNSPSSFHYWGQGTQVTVSS
notes: source: E. coli WK6, periplasmic extract, purified (Ni-NTA)

Target: T1, FedF_(15–165), N-terminal lectin domain …
Experiment: MST
Conditions: both partners purified

**Q.** How did the Kd turn out when B1 was run?
**A.** 3.57 nM

**Q.** How did the Kd turn out when B2 was run?
**A.** 5.25 nM

**Q.** For B3, which Kd is on record?
**A.** 1.58 nM

**Q.** How did the Kd turn out when B4 was run?
**A.** 29 nM
